According to patent publication US20200199244A1 (published 2020):

B1: BMS3h-43-1 (other)
VH: EVQLLESGGGLVQPGGSLRLSCTASGFTFNMYEMSWVRQAPGKGLEWVSGISRRGFTTYYADSVKGRFTISRDNSKNTLYLQMNSLRAEDTAVYYCAKEPITYDLRYARFDYSGQGTLVTVSS
notes: domain antibody (dAb): single human VH domain
B2: BMS3h-43-3 (other)
VH: EVQLLESGGGLVQPGGSLRLSCTASGFTFNMYEMSWVRQAPGKGLEWVSGISRRGFTTYYADSVKGRFTISRDNFKNTLYLQMNSLRAEDTAVYYCAKEPITYDMRYARFDYGGQGTLVTVSS
notes: as for B1
B3: BMS3h-131-2 (other)
VL: DIQMTQSPSSLSASVGDRVTITCRADSSILWALAWYQQKPGKAPKLLIESSSGLQSGVPSRFSGSGSGTDFTLTISSLQPEDFATYYCVQNAVWPGTFGQGTKVEIKR
notes: domain antibody (dAb): single human V kappa domain
B4: BMS3h-202-5 (other)
VH: EVQLLESGGGLVQPGGSLRLSCAASGFTFPTAEMLWVRQAPGKGLEWVSSISASGGSTYYADSVKGRFTISRDNSKNTLYLQMNSLRAEDTAVYYCAKEPVSYVATFDYWGQGTLVTVSS
notes: as for B1
B5: BMS3h-37-9 (other)
VH: EVQLLESGGGLVQPGGSLRLSCVASGFTFEWYEMQWVRQAPGNGLEWISAISGDGYRTYYADSVKGRFTISRDNSKNTLYLQMNSLRAEDTAVYYCAKELGYFDYWGRGTLVTVSS
notes: as for B1
B6: BMS3h-56-7 (other)
VH: EVQLLESGGGLVQPGGSLRLSCAASGFTFRDYEMWWVRQAPGKGLERVSAINPQGTRTYYADSVKGRFTISRDNSKNTLYLQMNSLRAEDTSVYHCAKPPFIFGDWGPGTLVTVSS
notes: as for B1
B7: BMS3h-56-9 (other)
VH: EVQLLESGGGLVQPGGSLRLSCAASGFTFRDYEMWWVRQAPGKGLERVSAINPQGTRTYYADSVMGRFTISRDNSKNTLYLQMNSLRAEDTAVYYCAKLPFMFDDRGQGTLVTVSS
notes: as for B1
B8: BMS3h-193-25 (other)
VL: DIQMTQSPSSLSASVGDRVTITCRASQTIERRLNWYQQKPGKAPRLLIYLATRLQSGVPSRFSGSGSGTDFTLTISSLQPEDFATYYCHQYESPPLTFGQGTKVEIKR
notes: as for B3
B9: BMS3h-193-29 (other)
VL: DIQMTQSPSSLSASVGDRVTITCRASQTIERRLNWYQQKPGKAPKLLIYLATRLQSGVPSRFSGSGSGTDFTLTISSLQPEDFATYYCHQYESPPLTFGQGTKVEIKR
B10: BMS3h-198-1 (other)
VH: EVQLLESGGGLVQPGGSLRLSCAASGSTIAGYEMWWVRQAPGKGLERVSAISGSGGSTYYADSVKGRFTISRDDSKNTLYLQMNSLRAEDTAVYYCARDPYSFDYWGQGTLVTVSS
B11: BMS3h-198-2 (other)
VH: EVQPLESGGGLVQPGGSLRLSCAASGFTFAGYEMWWVRQAPGKGLERISAISGSGGSTYYADSVKGRFTISRDDSKNTLYLQMNSLRAEDTAVYYCARDPYSFDYWGQGTLVTVSS
B12: BMS3h-198-5 (other)
VH: EVQLLESGGGLVQPGGSLRLSCAASGFTFAGYEMWWVRQAPGKGLERVSAISGSGGSTYYADSVKGRFTISRDDSKNTLYLQMNSLRAEDTAVYHCAKEPYSYDYWGQGTLVTVSS
B13: BMS3h-198-19 (other)
VH: EVQLLESGGGLVQPGGSLRLSCAASGFTFAGYELWWVRQAPGKGLERVSAISGSGGSTYYADSVKGRFTISRDDSKNTLYLQMNSLRAEDTAVYYCARDPYSFDYRGQGTLVTVSS
B14: BMS3h-198-24 (other)
VH: EVQLLESGGGLVQPGGSLRLSCAASGFTFAGYEMWWVRQAPGKGLERVSAISGSGGSTYYADSVKGRFTISRDDSKNTLYLQMNSLRAEDTAVYYCAKEPYSFDSWGQGTLVTVSS
B15: BMS3h-198-28 (other)
VH: EVQLLESGGGLVQPGGSLRLSCAASGFTFAGYEMWWFRQAPGKGLERVSAISGSGGSTYYADSVKGRFTISRDDSKNTLYLQMNSLRAEDTAVYYCAKDPYSFDNWGQGTLVTVSS
B16: BMS3h-202-5 (other)
VH: EVQLLESGGGLVQPGGSLRLSCAASGFTFPTAEMLWVRQAPGKGLEWVSSISASGGSTYYADSVKGRFTISRDNSKNTLYLQMNSLRAEDTAVYYCAKEPVSYVATFDYWGQGTLVTVSS
B17: BMS3h-202-10 (other)
VH: EVQLLESGGGLVQPGGSLRLSCAASGFTFPTAEMLWVRQAPGKGLEWVSSISASGGSTYYADSVKGRFTISRDNSKNTLYLQMNSLRAEDTAVYYCAKEPVYYVATFDYWGQGTLVTVSS
B18: BMS3h-202-11 (other)
VH: EVQLLESGGGLVQPGGSLRLSCAASGFTFPTAEMLWVRKAPGKGLEWVSSISASGGSTYYADSVKGRFTISRDNSKNTLYLQMNSLRAEDAAVYYCAKEPVSYVATFDYWGQGTLVTVSS
B19: BMS3h-217 (other)
VL: DIQMTQSPSSLSASVGDRVTITCRASHFIGTLLSWYQQKPGKAPKLLITYGSLLQSGVPSRFSGSGSGTDFTLTISSLQPEDFATYYCGQGVLWPATFGQGTKVEIKR
B20: BMS3h-217-7 (other)
VL: DIQMTQSPSSLSASVGDRVTITCRASHFIGSLLSWYQHKPGKAPKLLITYGSLLQSGVPSRFSGSGSGTDFTLTISSLQPEDFATYYCGQGVLWPATFGQGTKVEIKR
B21: BMS3h-217-9 (other)
VL: DIQMTQSPSSLSASVGDRVTITCRASHFIGTLLSWYQHKPGKAPKLLITYGSMLQSGVPSRFSGSGSGTDFTLTISSLQPEDFATYYCGQGVLWPATFGQGTKVEIKR
B22: BMS3h-217-17 (other)
VL: DIQIIQSPSSLSASVGDRVTITCRASHFIGTLLSWYQQKPGKAPKLLITYGSLLQSGVPSRFSGSGSGTDFTLTISSLQPEDFATYYCGQGVLWPPTFGQGTKVEIKR
B23: BMS3h-217-2305 (other)
VL: DIQMTQSPSSLSASVGDRVTITCRASHFIGSLLSWYQVKPGKAPKLLITWASYLQSGVPSRFSGSGSGTDFTLTISSLQPEDFATYYCGQGVLWPATFGQGTTVEIKR
B24: BMS3h-217-30 (other)
VL: DIQMTQSPSSLSASVGDRVTITCRASHFIGTLLSWYQLKPGKAPKLLITYGSWLQSGVPSRFSGSGSGTDFTLTISSLQPEDFATYYCGQGVLWPATFGQGTKVEIKR
B25: BMS3h-217-31 (other)
VL: DIQMTQSPSSLSASVGDRVTITCRASHFIGTLLSWYQQKPGKAPKLLITYGSLLQSGVPSRFSGSGFGTDFTLTISSLQPEDFATYYCGQEVLWPATFGQGTKVEIKR
B26: BMS3h-38 (other)
VH: EVQLLESGGGLVQPGGSLRLSCAASGFTFEEEEMIWVRQAPGKGLEWVSAISGSGGSTYYADSVKGRFTISRDNSKNTLYLQMNSLRAEDTAVYYCAKEPFRFDYWGQGTLVTVSS
notes: as for B1
B27: BMS3h-37 (other)
VH: EVQLLESGGGLVQPGGSLRLSCAASGFTFEWYEMQWVRQAPGKGLEWVSAISGDGYRTYYADSVKGRFTISRDNSKNTLYLQMNSLRAEDTAVYYCAKELGYFDYWGQGTLVTVSS
notes: as for B1
B28: BMS3h-41 (other)
VH: EVQLLESGGGLVQPGGSLRLSCAASGFTFTEYEMIWVRQAPGKGLEWVSSISGNGANTYYADSVKGRFTISRDNSKNTLYLQMNSLRAEDTAVYYCAKEPLRFDYWGQGTLVTVSS
notes: as for B1
B29: BMS3h-56 (other)
VH: EVQLLESGGGLVQPGGSLRLSCAASGFTFRDYEMWWVRQAPGKGLERVSAINPQGTRTYYADSVKGRFTISRDNSKNTLYLQMNSLRAEDTAVYYCAKLPFIFDYWGQGTLVTVSS
notes: as for B1
B30: BMS3h-198 (other)
VH: EVQLLESGGGLVQPGGSLRLSCAASGFTFAGYEMWWVRQAPGKGLERVSAISGSGGSTYYADSVKGRFTISRDDSKNTLYLQMNSLRAEDTAVYYCAKDPYSFDYWGQGTLVTVSS
notes: as for B1
B31: BMS3h-43 (other)
VH: EVQLLESGGGLVQPGGSLRLSCTASGFTFNMYEMSWVRQAPGKGLEWVSGISRRGFTTYYADSVKGRFTISRDNSKNTLYLQMNSLRAEDTAVYYCAKEPITYAMRYARFDYWGQGTLVTVSS
notes: as for B1

Each binder was assayed against T1, biotinylated human CD40 (BMS) (human, UniProt P25942 21-193, limits assumed, biotinylated (sites not given)) (assay: BIAcore SPR, immobilised biotinylated human CD40, 1:1 fit).
T1 construct: Ligand immobilised on the streptavidin BIAcore chip
T1 sequence (P25942 21-193 limits assumed): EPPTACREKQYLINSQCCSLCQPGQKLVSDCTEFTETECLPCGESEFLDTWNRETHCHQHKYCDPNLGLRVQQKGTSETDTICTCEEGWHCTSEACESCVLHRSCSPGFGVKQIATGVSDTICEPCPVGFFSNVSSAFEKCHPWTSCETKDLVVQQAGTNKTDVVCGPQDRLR
For B1, the Kd was 140 nM, the koff was 0.00063 s⁻¹ and the kon was 4400 M⁻¹ s⁻¹. Binder B2 has a Kd of 19 nM, a koff of 0.00059 s⁻¹ and a kon of 31000 M⁻¹ s⁻¹. Binder B3 has a Kd of 21 nM, a koff of 0.0017 s⁻¹ and a kon of 79000 M⁻¹ s⁻¹. With B4 the Kd was 300 nM, the koff was 0.0013 s⁻¹ and the kon was 4400 M⁻¹ s⁻¹. B5 showed a Kd of 12 nM, a koff of 0.00018 s⁻¹ and a kon of 15000 M⁻¹ s⁻¹. B6 gave a Kd of 3.5 nM, a koff of 0.00047 s⁻¹ and a kon of 130000 M⁻¹ s⁻¹. For B7, the Kd was 2.6 nM, the koff was 0.00039 s⁻¹ and the kon was 150000 M⁻¹ s⁻¹. For B8, the Kd was 81 nM, the koff was 0.037 s⁻¹ and the kon was 460000 M⁻¹ s⁻¹.

What follows are binders tested against human CD40 (human, UniProt P25942 21-277) (assay: cell-based or functional assay).
Chain of human CD40 (P25942 21-277 limits assumed): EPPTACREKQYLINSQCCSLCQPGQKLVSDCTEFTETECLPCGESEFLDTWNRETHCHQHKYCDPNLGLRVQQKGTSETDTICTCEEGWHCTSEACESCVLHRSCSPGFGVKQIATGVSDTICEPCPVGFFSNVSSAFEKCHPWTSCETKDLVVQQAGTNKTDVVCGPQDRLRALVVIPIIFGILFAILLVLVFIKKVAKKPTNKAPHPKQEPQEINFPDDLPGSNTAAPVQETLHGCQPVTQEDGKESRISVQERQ
B9 was tested, and the “hIZCD40L-driven Human B Cell Proliferation EC50” value was 1380 nM. For B10, the “hIZCD40L-driven Human B Cell Proliferation EC50” value was 64 nM. B11 was tested, and the “hIZCD40L-driven Human B Cell Proliferation EC50” value was 207 nM. B12 was tested, and the “hIZCD40L-driven Human B Cell Proliferation EC50” value was 9 nM. With B13 the “hIZCD40L-driven Human B Cell Proliferation EC50” value was 19 nM. B14 was tested, and the “hIZCD40L-driven Human B Cell Proliferation EC50” value was 34 nM. For B15, the “hIZCD40L-driven Human B Cell Proliferation EC50” value was 20 nM. With B16 the “hIZCD40L-driven Human B Cell Proliferation EC50” value was 6500 nM. With B17 the “hIZCD40L-driven Human B Cell Proliferation EC50” value was 289 nM. For B18, the “hIZCD40L-driven Human B Cell Proliferation EC50” value was 201 nM. For B19, the “hIZCD40L-driven Human B Cell Proliferation EC50” value was 3200 nM. With B20 the “hIZCD40L-driven Human B Cell Proliferation EC50” value was 220 nM. For B21, the “hIZCD40L-driven Human B Cell Proliferation EC50” value was 380 nM. For B22, the “hIZCD40L-driven Human B Cell Proliferation EC50” value was 1950 nM. In the case of B23, the “hIZCD40L-driven Human B Cell Proliferation EC50” value is reported as 11 nM. For B24, the “CHO-hCD40L-driven DC Activation IL-12 EC50” value was greater than 7700 nM and the “hIZCD40L-driven Human B Cell Proliferation EC50” value was 80 nM. For B25, the “hIZCD40L-driven Human B Cell Proliferation EC50” value was greater than 700 nM.

Biological target: T1, biotinylated human CD40 (BMS)
Experiment: BIAcore SPR, immobilised biotinylated human CD40, 1:1 fit
Remark: another data set of the same source
Experimental: A BIAcore™ 3000 instrument (GE Healthcare) was used to analyze the binding kinetics of CD40-specific dAbs to CD40. […] A second flow cell without any ligand immobilized served as a reference flow-cell for inline referencing. An appropriate doubling dilution series of each dAb to be analyzed was prepared in HBS-EP buffer (0.01 M HEPES pH 7.4 with 0.15 M NaCl, 3 mM EDTA and 0.005% v/v Surfactant P20, GE Healthcare). One hundred and eighty microlitres of each dAb were injected in duplicate using the instrument's KINJECT function. Each dAb was injected across the CD40-immobilised and reference flow-cells in series with inline subtraction of the signal from the reference cell. The experiment was performed at 25° C. and a flow rate of 30 μl/min of HBS-EP. After each injection had been completed, the dAb was allowed to dissociate from the ligand in buffer for 300 s before regeneration with a 10 μl injection of 10 mM glycine pH 2.0. A reference injection of HBS-EP buffer blank (containing no analyte) was also injected under the same conditions, to serve as a second reference for subtraction from each analyte trace. BIAevaluation 4.1 software (GE Healthcare) was used to subtract both the reference flow-cell trace and the buffer blank trace from each analyte trace. The same software was used to perform a simultaneous, global fit of a 1:1 (Langmuir) kinetic model to the association and dissociation phases of the analyte dilution series traces.
B26 was tested, and the Kd was 300 nM, the koff was 0.0062 s⁻¹ and the kon was 21000 M⁻¹ s⁻¹. For B27, the Kd was 190 nM, the koff was 0.0036 s⁻¹ and the kon was 19000 M⁻¹ s⁻¹. B28 gave a Kd of 840 nM, a koff of 0.0083 s⁻¹ and a kon of 9900 M⁻¹ s⁻¹. B29 gave a Kd of 180 nM, a koff of 0.004 s⁻¹ and a kon of 23000 M⁻¹ s⁻¹. Work on B30 yielded a Kd of 240 nM, a koff of 0.00038 s⁻¹ and a kon of 1600 M⁻¹ s⁻¹. Work on B31 yielded a Kd of 2100 nM, a koff of 0.0031 s⁻¹ and a kon of 1400 M⁻¹ s⁻¹.
